# Test results: patent US20070196354A1, “Method of treating diabetes by inhibiting degradation of at least one of crebl1, atf6, and hnf-4 alpha by htra” (priority 2003, published 2007)
# B1: mature HtrA2 (S306A, ΔAVPS): SEQ ID NO: 12; mature HtrA2 (S306A) lacking the N-terminal four amino acid residues (AVPS) (protein)
# chain: MPPPASPRSQYNFIADVVEKTAPAVVYIEILDRHPFLGREVPISNGSGFVVAADGLIVTNAHVVADRRRVRVRLLSGDTYEAVVTAVDPVADIATLRIQTKEPLPTLPLGRSADVRQGEFVVAMGSPFALQNTITSGIVSSAQRPARDLGLPQTNVEYIQTDAAIDFGNAGGPLVNLDGEVIGVNTMKVTAGISFAIPSDRLREFLHRGEKKNSSSGISGSQRRYIGVMMLTLSPSILAELQLREPSFPDVQHGVLIHKVILGSPAHRAGLRPGDVILAIGEQMVQNAEDVYEAVRTQSQLAVQIRRGRETLTLYVTPEVTE
# modifications: Polypeptide consisting of the same amino acid sequence of SEQ ID NO6 wherein the amino acid residues from the 2nd to the 5th are deleted; mature HtrA2(S306A, delta AVPS)
# B2: mature HtrA2 (S306A, GVPS): SEQ ID NO: 14; mature HtrA2 (S306A) with N-terminal alanine substituted with glycine (protein)
# chain: MGVPSPPPASPRSQYNFIADVVEKTAPAVVYIEILDRHPFLGREVPISNGSGFVVAADGLIVTNAHVVADRRRVRVRLLSGDTYEAVVTAVDPVADIATLRIQTKEPLPTLPLGRSADVRQGEFVVAMGSPFALQNTITSGIVSSAQRPARDLGLPQTNVEYIQTDAAIDFGNAGGPLVNLDGEVIGVNTMKVTAGISFAIPSDRLREFLHRGEKKNSSSGISGSQRRYIGVMMLTLSPSILAELQLREPSFPDVQHGVLIHKVILGSPAHRAGLRPGDVILAIGEQMVQNAEDVYEAVRTQSQLAVQIRRGRETLTLYVTPEVTE
# modifications: Polypeptide consisting of the same amino acid sequence of SEQ ID NO6 wherein the 2nd amino acid residue is substituted by Gly; mature HtrA2(S306A, GVPS)
# notes: mature HtrA2 (S306A) with N-terminal alanine substituted with glycine
# Columns and labels:
# [1] = test system: casein; assay: Casein zymography and protease assay with casein sodium; type: biochemical; settings: HtrA2 types expressed in a cultured cell
# Experimental: Determination of the activity of mature HtrA2 and mature HtrA2 (S306A) was carried out with casein zymography and with a protease assay with casein sodium. Casein zymography was carried out according to the protocol (Invitrogen). More concretely, mature HtrA2 and mature HtrA2 (S306A) were mixed under non-reductive condition with equivalent volume of 2×SDS sample buffer, left to stand at room temperature for 10 min, followed by separation with 4-16% zymogram (Blue casein) gel (Zymogram Gel, Invitrogen). After completion of electrophoresis, they were renatured with 2.5% Triton X-100, and then subjected to a degradation reaction of casein in the developing buffer at 37= C. for overnight.
# Meanwhile, a protease assay using casein sodium as an substrate was carried out in such that mature HtrA2 or mature HtrA2 (S306A) was mixed with casein sodium in a reaction buffer (150 mM NaCl, 50 mM Tris-HCl (pH 7.5)) so as to the concentration of the former might become 200 μg/ml and the concentration of the latter might become 400 μg/ml, and incubated at 37° C. for reactions. A portion of the reaction solution was sampled at three hours and overnight after initiation of the reaction, mixed with equivalent volume of 2×SDS sample buffer followed by boiling, and then subjected to SDS-PAGE. After that, the degradation of casein sodium was detected by Coomassie Brilliant Blue (CBB) staining.
# The enzyme activity of the various types of HtrA2 each of which was expressed in a cultured cell was determined by the protease assay using casein sodium as a substrate (see Example 2).
# [2] = target: T1, CREBL1 (Homo sapiens, UniProt Q99941); assay: Intracellular protease assay, co-expression with CREBL1 in HEK293T cells; type: cell-based; settings: 48 hours
# T1 construct: expressed in transfected cells; host or cells: HEK293T
# T1 sequence (Q99941 1-703): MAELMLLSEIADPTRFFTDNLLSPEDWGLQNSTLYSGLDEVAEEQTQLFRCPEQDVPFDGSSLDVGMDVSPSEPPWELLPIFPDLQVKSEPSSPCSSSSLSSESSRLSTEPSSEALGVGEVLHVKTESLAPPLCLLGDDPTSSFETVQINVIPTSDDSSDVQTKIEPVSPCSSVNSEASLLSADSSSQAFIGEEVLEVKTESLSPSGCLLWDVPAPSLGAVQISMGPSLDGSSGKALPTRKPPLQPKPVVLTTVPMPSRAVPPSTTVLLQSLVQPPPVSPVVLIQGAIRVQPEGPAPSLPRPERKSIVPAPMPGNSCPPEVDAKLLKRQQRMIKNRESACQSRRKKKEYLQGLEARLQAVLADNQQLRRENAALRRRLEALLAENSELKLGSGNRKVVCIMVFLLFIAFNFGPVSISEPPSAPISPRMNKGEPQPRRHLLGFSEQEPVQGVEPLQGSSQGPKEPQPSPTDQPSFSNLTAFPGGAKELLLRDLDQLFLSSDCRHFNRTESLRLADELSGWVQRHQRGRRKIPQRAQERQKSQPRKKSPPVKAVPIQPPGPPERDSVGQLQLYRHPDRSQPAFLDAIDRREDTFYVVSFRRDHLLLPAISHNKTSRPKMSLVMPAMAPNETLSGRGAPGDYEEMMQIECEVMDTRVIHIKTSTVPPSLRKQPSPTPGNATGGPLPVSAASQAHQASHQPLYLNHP
# Experimental: (§1) HEK293T cells were cultured to 1.5×10^5 cells/10 cm Dish. Next day, the expression plasmid of CREBL1 or ATF6 was transfected into HEK293T cells together with the expression plasmid of various types of HtrA2 using FuGene 6 (Roche). Each of the expression plasmid of various HtrA2 at 1 μg/Dish was added in combination with CREBL1 expression plasmid or ATF6 expression plasmid at 1 μg/Dish. Forty eight hours later, the cells in which the various types of HtrA2 were co-expressed with CREBL1 or ATF6 were added with 200 μl of lysis buffer B and an equivalent volume of 2×SDS sample buffer (containing 0.1% β-mercaptoethanol), and then subjected to sonication followed by boiling to use as a test sample.
# (§2) Expression of CREBL1 and ATF6 and the degradation of these proteins were detected by western blotting using 10 μl of the test sample thus obtained. Anti-c-Myc (9E10) antibody was used as a primary antibody for detection, and horseradish peroxidase (HRP) conjugated anti-mouse IgG antibody (Cell Signaling) was used as a secondary antibody. Detection was carried out using ECL Western Blotting Detection System.
# [3] = target: T2, ATF6 (Homo sapiens, UniProt P18850); assay: Intracellular protease assay, co-expression with ATF6 in HEK293T cells; type: cell-based; settings: 48 hours
# T2 construct: expressed in transfected cells; host or cells: HEK293T
# T2 sequence (P18850 1-670): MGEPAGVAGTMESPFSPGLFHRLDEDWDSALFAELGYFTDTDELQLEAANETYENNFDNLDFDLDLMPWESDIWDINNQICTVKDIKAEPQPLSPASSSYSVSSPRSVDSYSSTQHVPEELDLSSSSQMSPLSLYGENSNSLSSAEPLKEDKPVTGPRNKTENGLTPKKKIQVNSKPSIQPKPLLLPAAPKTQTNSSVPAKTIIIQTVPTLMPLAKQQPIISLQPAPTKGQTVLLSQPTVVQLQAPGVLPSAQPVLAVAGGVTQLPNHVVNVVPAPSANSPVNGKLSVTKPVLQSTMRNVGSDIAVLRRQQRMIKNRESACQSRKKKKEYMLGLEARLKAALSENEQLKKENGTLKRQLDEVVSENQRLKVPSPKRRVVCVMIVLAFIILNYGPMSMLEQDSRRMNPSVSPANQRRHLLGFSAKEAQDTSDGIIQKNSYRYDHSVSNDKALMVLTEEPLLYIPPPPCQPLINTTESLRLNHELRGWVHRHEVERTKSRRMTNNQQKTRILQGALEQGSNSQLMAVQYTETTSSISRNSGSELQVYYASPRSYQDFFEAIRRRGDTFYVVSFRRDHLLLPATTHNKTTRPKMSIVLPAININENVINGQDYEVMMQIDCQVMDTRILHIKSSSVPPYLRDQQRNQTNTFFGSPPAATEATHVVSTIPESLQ
# Experimental: as §1, §2
# [4] = target: T3, HNF-4α (Homo sapiens, UniProt P41235); assay: Intracellular protease assay, co-expression with HNF-4α in HEK293T cells; type: cell-based; settings: 48 hours
# T3 construct: expressed in transfected cells; host or cells: HEK293T
# T3 sequence (P41235 10-474): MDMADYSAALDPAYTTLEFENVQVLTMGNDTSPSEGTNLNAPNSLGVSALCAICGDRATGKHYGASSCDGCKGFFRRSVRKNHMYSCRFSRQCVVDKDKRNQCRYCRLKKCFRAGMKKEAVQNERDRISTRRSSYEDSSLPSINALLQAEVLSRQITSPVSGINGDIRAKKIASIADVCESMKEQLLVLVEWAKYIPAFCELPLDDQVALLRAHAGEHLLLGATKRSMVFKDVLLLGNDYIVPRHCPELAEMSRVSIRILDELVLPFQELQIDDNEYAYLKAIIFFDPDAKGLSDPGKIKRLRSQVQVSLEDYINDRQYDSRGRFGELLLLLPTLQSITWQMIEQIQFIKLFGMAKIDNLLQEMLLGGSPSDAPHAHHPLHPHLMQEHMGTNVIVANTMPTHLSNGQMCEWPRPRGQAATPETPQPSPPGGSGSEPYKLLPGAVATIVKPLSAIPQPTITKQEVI
# Experimental: as §1, with “cells/6” for “cells/10”, “HNF-4α” for “CREBL1 or ATF6”, “HNF-4α” for “CREBL1 expression plasmid or ATF6”
# Expression of HNF-4α and the degradation of HNF-4α were detected by western blotting using 10 μl of the test sample thus obtained. Anti-FLAG antibody (Sigma) was used as a primary antibody for detection, and horseradish peroxidase (HRP) labeled anti-mouse IgG antibody (Cell Signaling) was used as a secondary antibody. Detection was carried out using ECL Western Blotting Detection System.
Molecule,protease activity using casein sodium as a substrate [1],degradation of CREBL1 in cells (band by western blotting) [2],degradation of ATF6 in cells (band by western blotting) [3],degradation of HNF-4α in cells (band by western blotting) [4]
B1,inactive type without exhibiting protease activity,the reduction of the band of CREBL1 was not observed,the reduction of the band of ATF6 was not observed,the reduction of the band of HNF-4α was not observed
B2,inactive type without exhibiting protease activity,the reduction of the band of CREBL1 was not observed,the reduction of the band of ATF6 was not observed,the reduction of the band of HNF-4α was not observed
